Reference: PMC7992989

Experiments:
[1] = biological target: CP12 from Thalassiosira pseudonana, recombinant, after His tag removal with thrombin (Thalassiosira pseudonana); test: native MS; native ESI-MS, 5 µM CP12 without histidine tag, 200 mM ammonium acetate pH 8.0, source temperature 20 °C; dimer to monomers
[2] = biological target: recombinant histidine tagged CP12 from Thalassiosira pseudonana (Thalassiosira pseudonana); test: SEC-SAXS; 50 µL of His-tagged CP12 at 11 mg/mL on Agilent Bio-SEC-3 300 Å, 15 °C, 30 mM Tris, 50 mM NaCl, 2 mM EDTA, 1 mM TCEP, pH 7.5; mass from the forward scattering intensity

CP12 from Thalassiosira pseudonana, recombinant, after His tag removal with thrombin (natural protein)
stoichiometry N [1]: 2

recombinant histidine tagged CP12 from Thalassiosira pseudonana (natural protein)
stoichiometry N [2]: 2
